First the molecules themselves.
B1: ZBED3 (parent)
chain: QARLRDVSRREGALGWAPAAPPPL
B2: PDZK1 (parent)
chain: RETASLKLLPHQPRIVEMKKGSNG

In the supplement of paper PMC10567573 one finds protein stability index data, which are given here for 94 variants.
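Note: lentivirally expressed fusions sorted by FACS into six bins by GFP to DsRed ratio, PSI derived from sequencing read proportions per bin multiplied by bin number.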

In one data set the parent is B1. Nature of the data set: protein stability index of a GFP-peptide fusion (GPS, HEK-293T) (PSI 1-6); higher = more stable. The following applies: c terminus: a fixed tail appended.
As for QARLRDVSRREGALGWAPAAPFPL [P22F], the protein stability index was 2.89. As to QARLRDVSRREGALGWAPAAPEPL [P22E], the protein stability index was determined as 4.2. Take QARLRDVSRREGALGWAPAAPSPL [P22S]: the protein stability index came to 3.2. As to QARLRDVSRREGALGWAPAAPTPL [P22T], the protein stability index was 3.11. Same read-out and setting: the result for QARLRDVSRREGALGWAPAAPVPL [P22V] reads 2.46; that for QARLRDVSRREGALGWAPAAPIPL [P22I], 2.74; that for QARLRDVSRREGALGWAPAAPRPL [P22R], 3.31. As for QARLRDVSRREGALGWAPAAPDPL [P22D], the protein stability index is 3.81.

On to QARLRDVSRREGALGWAPAAPQPL [P22Q], for which the protein stability index stood at 3.29. Turning to QARLRDVSRREGALGWAPAAPLPL [P22L], the protein stability index came to 3.46. For QARLRDVSRREGALGWAPAAPNPL [P22N], the protein stability index stood at 3.26. For QARLRDVSRREGALGWAPAAPMPL [P22M], the protein stability index is 3.16. QARLRDVSRREGALGWAPAAPHPL [P22H]: the protein stability index was 3.45. On the same count and under the same terms, the result for QARLRDVSRREGALGWAPAAPGPL [P22G] reads 3.34; that for QARLRDVSRREGALGWAPAAPYPL [P22Y], 2.37; that for QARLRDVSRREGALGWAPAAPKPL [P22K], 3.62. With QARLRDVSRREGALGWAPAAPAPL [P22A], the protein stability index was 3.65. Turning to QARLRDVSRREGALGWAPAAPWPL [P22W], the protein stability index stood at 2.62.

For the variant QARLRDVSRREGALGWAPAAPCPL [P22C], the protein stability index is 2.29. As to QARLRDVSRREGALGWAPAAPPRL [P23R], the protein stability index was determined as 3.33.

As to QARLRDVSRREGALGWAPAAPPEL [P23E], the protein stability index was determined as 3.12.

For the variant QARLRDVSRREGALGWAPAAPPIL [P23I], the protein stability index stood at 2.36. On the same count and under the same terms, the result for QARLRDVSRREGALGWAPAAPPLL [P23L] reads 2.9; that for QARLRDVSRREGALGWAPAAPPFL [P23F], 2.79; that for QARLRDVSRREGALGWAPAAPPCL [P23C], 3.19.

Consider QARLRDVSRREGALGWAPAAPPML [P23M], for which the protein stability index was 2.86. Still for that read-out and setting: the same measure for QARLRDVSRREGALGWAPAAPPAL [P23A]: 3.38; for QARLRDVSRREGALGWAPAAPPNL [P23N]: 3.18. On to QARLRDVSRREGALGWAPAAPPKL [P23K], for which the protein stability index was 3.33. On to QARLRDVSRREGALGWAPAAPPDL [P23D], for which the protein stability index came to 3.81. Still for that read-out and setting: the result for QARLRDVSRREGALGWAPAAPPGL [P23G] reads 3.73; that for QARLRDVSRREGALGWAPAAPPSL [P23S], 3.63.

Consider QARLRDVSRREGALGWAPAAPPVL [P23V], for which the protein stability index is 2.79. With QARLRDVSRREGALGWAPAAPPQL [P23Q], the protein stability index was 3.5. Regarding QARLRDVSRREGALGWAEAAPPPL [P18E], the protein stability index came to 3.56. Same read-out and setting: the same measure for QARLRDVSRREGALGWAPAAEPPL [P21E]: 3.87.

For the variant QARLRDVSRREGALGWAPAAIPPL [P21I], the protein stability index is 2.84.

Regarding QARLRDVSRREGALGWAPAAGPPL [P21G], the protein stability index came to 3.02. As for QARLRDVSRREGALGWAPAANPPL [P21N], the protein stability index stood at 2.84.

As to QARLRDVSRREGALGWAPAAVPPL [P21V], the protein stability index amounted to 3.27.

As for QARLRDVSRREGALGWAPAAYPPL [P21Y], the protein stability index was 2.02. QARLRDVSRREGALGWAPAAWPPL [P21W]: the protein stability index was determined as 2.12.

As to QARLRDVSRREGALGWAPAASPPL [P21S], the protein stability index is 3.5. On the same count and under the same terms, the same measure for QARLRDVSRREGALGWAPAAFPPL [P21F]: 2.48; for QARLRDVSRREGALGWAPAARPPL [P21R]: 3.49. In the case of QARLRDVSRREGALGWAPAADPPL [P21D], the protein stability index was determined as 3.96. On the same count and under the same terms, the same measure for QARLRDVSRREGALGWAPAACPPL [P21C]: 2.31; for QARLRDVSRREGALGWAPAAKPPL [P21K]: 3.55. Still for that read-out and setting: the same measure for QARLRDVSRREGALGWAPAALPPL [P21L]: 2.67; for QARLRDVSRREGALGWAPAAQPPL [P21Q]: 3.22; for QARLRDVSRREGALGWAPAAMPPL [P21M]: 3.2. In the case of QARLRDVSRREGALGWAPAAAPPL [P21A], the protein stability index stood at 3.1. Turning to QARLRDVSRREGALGWAPAWPPPL [A20W], the protein stability index is 1.96.

The next data set covers variants of B2. The description is as above. The note with it: c terminus: a fixed tail appended.
With RETASLKLLPHQPRIVEMKKGSNP [G24P], the protein stability index worked out at 4.01. Regarding RETASLKLLPHQPRIVEMKKGSND [G24D], the protein stability index was 5. Same read-out and setting: the same measure for RETASLKLLPHQPRIVEMKKGSNR [G24R]: 4.03; for RETASLKLLPHQPRIVEMKKGSNE [G24E]: 4.82. In the case of RETASLKLLPHQPRIVEMKKGSNQ [G24Q], the protein stability index amounted to 4.58.

Turning to RETASLKLLPHQPRIVEMKKGSNS [G24S], the protein stability index is 3.99. In the case of RETASLKLLPHQPRIVEMKKGSNH [G24H], the protein stability index was determined as 4.17. Regarding RETASLKLLPHQPRIVEMKKGSNL [G24L], the protein stability index came to 3.53. For RETASLKLLPHQPRIVEMKKGSNV [G24V], the protein stability index was 4.15.

On to RETASLKLLPHQPRIVEMKKGSNM [G24M], for which the protein stability index stood at 4.17. Same read-out and setting: the result for RETASLKLLPHQPRIVEMKKGSNF [G24F] reads 3.05; that for RETASLKLLPHQPRIVEMKKGSNT [G24T], 4.41. Same read-out and setting: the same measure for RETASLKLLPHQPRIVEMKKGSNA [G24A]: 4.52; for RETASLKLLPHQPRIVEMKKGSNC [G24C]: 4.01. Turning to RETASLKLLPHQPRIVEMKKGSNY [G24Y], the protein stability index was determined as 3.56. In the case of RETASLKLLPHQPRIVEMKKGSNK [G24K], the protein stability index came to 4.76.

As to RETASLKLLPHQPRIVEMKKGSNW [G24W], the protein stability index is 3.88. As to RETASLKLLPHQPRIVEMKKGSNN [G24N], the protein stability index turned out to be 4.49.

For the variant RETASLKLLPHQPRIVEMKKGSIG [N23I], the protein stability index is 3.24. Consider RETASLKLLPHQPRIVEMKKGSEG [N23E], for which the protein stability index turned out to be 4.45. For RETASLKLLPHQPRIVEMKKGSCG [N23C], the protein stability index amounted to 3.25. RETASLKLLPHQPRIVEMKKGSAG [N23A]: the protein stability index came out at 3.62. Consider RETASLKLLPHQPRIVEMKKGSQG [N23Q], for which the protein stability index stood at 4.32. On to RETASLKLLPHQPRIVEMKKGSGG [N23G], for which the protein stability index was found to be 3.62. For RETASLKLLPHQPRIVEMKKGSWG [N23W], the protein stability index was found to be 3.12. As to RETASLKLLPHQPRIVEMKKGSSG [N23S], the protein stability index amounted to 3.14. Still for that read-out and setting: the result for RETASLKLLPHQPRIVEMKKGSPG [N23P] reads 4.22. On the same count and under the same terms, the result for RETASLKLLPHQPRIVEMKKGSLG [N23L] reads 3.11.

As to RETASLKLLPHQPRIVEMKKGSDG [N23D], the protein stability index is 4.24. As to RETASLKLLPHQPRIVEMKKGSVG [N23V], the protein stability index amounted to 3.72.

Take RETASLKLLPHQPRIVEMKKGSRG [N23R]: the protein stability index stood at 4.48.

As to RETASLKLLPHQPRIVEMKKGSKG [N23K], the protein stability index worked out at 4.18. Consider RETASLKLLPHQPRIVEMKKGSYG [N23Y], for which the protein stability index is 3.3. RETASLKLLPHQPRIVEMKKGSTG [N23T]: the protein stability index worked out at 3.52.

Turning to RETASLKLLPHQPRIVEMKKGSMG [N23M], the protein stability index worked out at 3.24.

Turning to RETASLKLLPHQPRIVCMKKGSNG [E17C], the protein stability index turned out to be 3.17. As for RETASLKLLPHQPRIVSMKKGSNG [E17S], the protein stability index was found to be 3.67. With RETASLKLLPHQPRIVPMKKGSNG [E17P], the protein stability index is 2.97. Turning to RETASLKLLPHQPRIVGMKKGSNG [E17G], the protein stability index stood at 3.48.

On to RETASLKLLPHQPRIVKMKKGSNG [E17K], for which the protein stability index was 3.82. In the case of RETASLKLLPHQPRIVYMKKGSNG [E17Y], the protein stability index amounted to 2.51.
